Among the targets are PDE5/6cd M804A (human) (UniProt O76074); PDE5/6cd V796E (human) (UniProt O76074); PDE5/6cd I802A (human) (UniProt O76074); PDE5/6cd F823A (human) (UniProt O76074); PDE5/6cd Q799I (human) (UniProt O76074); PDE5/6cd M804L (human) (UniProt O76074); PDE5/6cd P803D (human) (UniProt O76074); PDE5/6cd L792R (human) (UniProt O76074); PDE5/6cd I802T (human) (UniProt O76074); PDE5cd A823F (human, UniProt O76074 535-860, A823F).

Common to all, as to experiment: inhibition of PDE activity
Assay [1] addresses PDE5/6cd I802T/P803D/M804L (human) (UniProt O76074).
Assay [2] deals with chimeric PDE5/PDE6 catalytic domain PDE5/6cd (human) (UniProt O76074).
The target in assay [3] is PDE5/6cd I802A//M804A (human) (UniProt O76074).
In assay [4] the target is PDE5/6cd I802A/P803D/M804L (human) (UniProt O76074).
In assay [5] the target is PDE5/6cd L792R/V796E/Q799I (human) (UniProt O76074).
Assay [6] addresses PDE5cd T802I/D803P/L804M/A823F (human, UniProt O76074 535-860, T802I | D803P | L804M | A823F).
In assay [7] the target is PDE5cd R792L/E796V/I799Q/A823F (human, UniProt O76074 535-860, R792L | E796V | I799Q | A823F).

Two molecules from publication PMC2864356 (Biochemistry, 2010) can be followed below.

Turning to “Pγ C-terminal peptide Pγ_(63-87) (from UniProt P04972 63-87)”, the Ki (as a rule, the equilibrium dissociation constant of an inhibitor or competing ligand from its target) in the assay with PDE5/6cd M804A (human) amounted to 10.3 µM; in assay [1], 21.8 µM; with PDE5/6cd V796E (human), 1.8 µM; with PDE5/6cd I802A (human), 12.1 µM; with PDE5/6cd F823A (human), 15.1 µM; in the assay with PDE5/6cd Q799I (human) it was 3.5 µM. Further, the Ki with PDE5/6cd M804L (human) was determined as 2 µM; with PDE5/6cd P803D (human), 6.7 µM; with PDE5/6cd L792R (human), 3.2 µM; in [2], 1.7 µM; in assay [3], 26.2 µM; in assay [4], 25.5 µM. Further, the Ki with PDE5/6cd I802T (human) worked out at 8.6 µM; in assay [5] it was 6 µM.

In the case of DITVICPWEAFNHLELHELAQYGII (peptide, UniProt P04972 63-87, looked up) [Pγ C-terminal peptide Pγ_(63-87)], the Ki in assay [6] came to 19.4 µM; in the assay with PDE5cd A823F it was 44.3 µM; in [7], 23.5 µM. The results for the “maximal inhibition (%)” value (in assay [6]; in the assay with PDE5cd A823F; in assay [7]) were 72 ± 4%, 52 ± 4% and 78 ± 5%, respectively.
